Measurements: publication PMC8051604

Legend:
[1] = target: CitERF33, split-YFP fusion (BiFC) (Citrus reticulata cv. Suavissima (Ougan))
[2] = target: CitCHS1 (citrus chalcone synthase 1), pGADT7 fusion (Citrus reticulata cv. Suavissima (Ougan))
[3] = target: CitCHS2 (citrus chalcone synthase 2), pGADT7 fusion (Citrus reticulata cv. Suavissima (Ougan))

Substance | activation of the CitCHIL1 promoter by CitERF33 and CitRAV1 together (dual-luciferase assay in N. benthamiana leaves, LUC/REN against empty vector; 1.6-fold for CitERF33/EV or CitRAV1/EV) [1] | k cat value of CitCHS1 for malonyl-CoA with CitCHIL1 against without it (in vitro chalcone synthase assay, purified recombinant proteins) [2] | k cat value of CitCHS1 for p-coumaroyl-CoA with CitCHIL1 against without it (in vitro chalcone synthase assay, purified recombinant proteins) [2] | k cat value of CitCHS2 for malonyl-CoA with CitCHIL1 against without it (in vitro chalcone synthase assay, purified recombinant proteins) [3] | k cat value of CitCHS2 for p-coumaroyl-CoA with CitCHIL1 against without it (in vitro chalcone synthase assay, purified recombinant proteins) [3]
CitRAV1, split-YFP fusion (BiFC) (natural protein) | 10.6 fold | – | – | – | –
CitCHIL1 (citrus type IV chalcone isomerase), pGBKT7 fusion (natural protein) | – | 1.86 fold | 1.81 fold | 1.33 fold | 1.43 fold
